# Reference: patent US20230357414A1 (SYNTHEKINE, published 2023)
# T1: extracellular domain of human IL12Rb2 (amino acids 24-622 of hIL12Rb2, UniProt Q99665) (human, UniProt Q99665 24-622)
# T1 construct: also called hIL12Rb2 ECD; hIL12Rb2-ECD
# T1 sequence: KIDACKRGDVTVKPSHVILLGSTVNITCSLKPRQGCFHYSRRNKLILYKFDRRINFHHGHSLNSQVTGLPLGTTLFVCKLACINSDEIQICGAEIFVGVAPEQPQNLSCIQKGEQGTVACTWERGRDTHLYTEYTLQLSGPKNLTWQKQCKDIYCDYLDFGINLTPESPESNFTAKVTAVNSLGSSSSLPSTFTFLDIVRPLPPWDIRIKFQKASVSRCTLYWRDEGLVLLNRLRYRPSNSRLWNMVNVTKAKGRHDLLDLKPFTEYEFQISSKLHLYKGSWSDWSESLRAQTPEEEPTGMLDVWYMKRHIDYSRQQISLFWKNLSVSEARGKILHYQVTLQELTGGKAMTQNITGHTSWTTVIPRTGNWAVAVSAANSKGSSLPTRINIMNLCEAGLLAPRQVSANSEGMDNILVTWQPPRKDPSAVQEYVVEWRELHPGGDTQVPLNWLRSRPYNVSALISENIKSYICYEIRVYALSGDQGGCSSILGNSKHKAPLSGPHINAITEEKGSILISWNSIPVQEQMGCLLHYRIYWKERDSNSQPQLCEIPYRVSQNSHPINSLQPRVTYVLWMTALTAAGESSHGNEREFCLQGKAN
# Target: T1, extracellular domain of human IL12Rb2 …
# Assay: periplasmic extract ELISA on antigen-coated plate; positive if A450 at least threefold over PBS-coated control
# Procedure: Upon completion of the biopanning of Example 3, three 96-well plates of individual phage clones were isolated in order to perform periplasmic extract ELISA (PE-ELISA) on IL12Rb2 coated plates to identify positive VHH binders that selectively bound IL12Rb2. A 96-well plate was coated with IL12Rb2 and PBS under the same conditions. Next, wells were blocked at 37° C. for 1 h. Then, 100 μl of extracted antibodies was added to each well and incubated for 1 h. Subsequently, 100 μl of anti-tag polyclonal antibody conjugated to HRP was added to each well and incubated at 37° C. for 1 h. Plates were developed with TMB substrate. The reaction was stopped by the addition of H2SO4. Absorbance at 450 nm was read on a microtiter plate reader. Antibodies with absorbance of the antigen-coated well at least threefold greater than PBS-coated control are VHHs that specifically bind to IL 12Rb2. Positive clones were sequenced, and sequences analyzed to identify unique clonotypes
row,Binder,binding result
1,"VHH3 (VHH, Camel VHH, tested as a periplasmic extract of a phage clone; also called anti-human IL12Rb2 VHH3; hIL12Rb2 VHH; not shown: HA/His tag encoded by the pMECS phagemid) VHH: QVQLQESGGGSVQAGGSLRLSCTASGLTFDDVEMAWYRQGPGDDYDLVSSINTDSRVYYVDSVKDRFTISRDNAKNTLYLQMNNLKPEDTAVYYCAADPWGGDLRGYPNYWGQGTQVTVSS",binds
2,"VHH5 (VHH, Camel VHH, tested as a periplasmic extract of a phage clone; also called anti-human IL12Rb2 VHH5; hIL12Rb2 VHH; not shown: HA/His tag encoded by the pMECS phagemid) VHH: QVQLQESGGGLVQPGGSLKLSCAASGFTFSTYAMSWVRQAPGKEPEWISRISSGGGNTYYADAVKGRFAISRDNAKNTLYLQLNSLKTEDTAIYVCTMDDYYGGSWHPISRGHGTQVTVSS",binds
3,"VHH6 (VHH, Camel VHH, tested as a periplasmic extract of a phage clone; also called anti-human IL12Rb2 VHH6; hIL12Rb2 VHH; not shown: HA/His tag encoded by the pMECS phagemid) VHH: QVQLQESGGGLVQAGGSLRLSCQASGYTYGLFCMGWFRQVSGKKREGVAVVDSPGGRHVADSLKGRFTISKDNANNILYLDMTNLKSEDTATYYCAADPEKYCFLFSDAGYQYWGQGTQVTVSS",binds
4,"VHH7 (VHH, Camel VHH, tested as a periplasmic extract of a phage clone; also called anti-human IL12Rb2 VHH7; hIL12Rb2 VHH; not shown: HA/His tag encoded by the pMECS phagemid) VHH: QVQLQESGGGSVQAGGSLRLSCAASGVTYSRYCMGWFRQAPGLERERVATIYSRGIITYYTDSVKGRFTISQDSAKKTVYLQMNSLKPEDTAMYYCAATRETYGGSGDCDYESVYNYWAQGTQVTVSS",binds
5,"VHH12 (VHH, Camel VHH, tested as a periplasmic extract of a phage clone; also called anti-human IL12Rb2 VHH12; hIL12Rb2 VHH; not shown: HA/His tag encoded by the pMECS phagemid) VHH: QVQLQESGGGSVQAGGSLRLSCAASGVTYSRYCMGWFRQAPGLERERVATIYSRGIITYYTDSVKGRFTISQDSAKKTVYLQMNMLKPEDTAMYYCAATRETYGGSGDCDYESVYNYWAQGTQVTVSS",binds
6,"VHH16 (VHH, Camel VHH, tested as a periplasmic extract of a phage clone; also called anti-human IL12Rb2 VHH16; hIL12Rb2 VHH; not shown: HA/His tag encoded by the pMECS phagemid) VHH: QVQLQESGGGSVQAGGSLRLSCAASGVTYSRYCMGWFRQAPGLERERVAHIYSRGIITYYTDSVKGRFTISQDSAKKTVYLQMNSLKPEDTAMYYCAATRETYGGSGDCSYESVYNHWAQGTQVTVSS",binds
7,"VHH14 (VHH, Camel VHH, tested as a periplasmic extract of a phage clone; also called anti-human IL12Rb2 VHH14; hIL12Rb2 VHH; not shown: HA/His tag encoded by the pMECS phagemid) VHH: QVQLQESGGGSVQAGGSLRLSCAASGVTYSRYCMGWFRQAPGLERERVAHIYSRGIITYYTDSVKGRFTISQDSAKKTVYLQMNSLKPEDTAMYYCAATRETYGGSGDCGYESVYNYWAQGTQVTVSS",binds
8,"VHH2 (VHH, Camel VHH, tested as a periplasmic extract of a phage clone; also called anti-human IL12Rb2 VHH2; hIL12Rb2 VHH; not shown: HA/His tag encoded by the pMECS phagemid) VHH: QVQLQESGGGSVQAGGSLRLSCAASGFTISRYCMGWLRQAPGKQREGVAIIERDGRTGYADSVKGRFTISKDNAKNTLYLQMNSLKPEDTAMYYCGAIEGSCRPDFGYRGQGTQVTVSS",binds
9,"VHH13 (VHH, Camel VHH, tested as a periplasmic extract of a phage clone; also called anti-human IL12Rb2 VHH13; hIL12Rb2 VHH; not shown: HA/His tag encoded by the pMECS phagemid) VHH: QVQLQESGGGSVQAGGSLRLSCAASGFTISKYCMGWLRQAPGKQREGVAIIERDGRTGYADSVKGRFTISKDNAKNTLYLQMNSLKPEDTAMYYCGAIEGSCRPDFGYRGQGTQVTVSS",binds
10,"VHH8 (VHH, Camel VHH, tested as a periplasmic extract of a phage clone; also called anti-human IL12Rb2 VHH8; hIL12Rb2 VHH; not shown: HA/His tag encoded by the pMECS phagemid) VHH: QVQLQESGGGSVQAGGSLRLSCAASGFTVSRYCMGWLRQAPGKQREGVAIIEREGRTGYADSVKGRFTISKDNAKNTLYLQMNSLKPEDTAMYYCGAIEGSCRPDFGYRGQGTQVTVSS",binds
11,"VHH10 (VHH, Camel VHH, tested as a periplasmic extract of a phage clone; also called anti-human IL12Rb2 VHH10; hIL12Rb2 VHH; not shown: HA/His tag encoded by the pMECS phagemid) VHH: QVQLQESGGGSVQAGGSLRLSCAASGFTVTRYCMGWLRQAPGKQREGVAIIERDGRTGYADSVKGRFTISKDNAKNTLYLQMNSLKPEDTAMYYCGAIEGSCRPDFGYRGQGTQVTVSS",binds
12,"VHH9 (VHH, Camel VHH, tested as a periplasmic extract of a phage clone; also called anti-human IL12Rb2 VHH9; hIL12Rb2 VHH; not shown: HA/His tag encoded by the pMECS phagemid) VHH: QVQLQESGGGSVQAGGSLRLSCAASGFTISRYCMGWLRQAPGKQREGVAIIERDGRTGYADSVKGRFTISKDNAKNTLYLQMNSLKPEDTAMYFCGAIEGSCRPDFGYRGQGTQVTVSS",binds
